This is an account of results in article PMC8165985.

The target of this series is T1, YycF (Staphylococcus aureus (ATCC29213?)) (UniProt Q9RDT5).
T1 sequence: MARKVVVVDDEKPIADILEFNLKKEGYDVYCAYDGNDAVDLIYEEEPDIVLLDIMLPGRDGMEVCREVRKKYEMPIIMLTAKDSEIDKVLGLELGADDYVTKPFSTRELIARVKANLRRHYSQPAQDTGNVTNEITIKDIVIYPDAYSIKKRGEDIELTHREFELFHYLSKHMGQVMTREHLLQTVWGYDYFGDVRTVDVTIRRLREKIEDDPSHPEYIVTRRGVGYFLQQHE
Briefly: EMSA.

For the sequence “CTGAAAATTAATCACACTATGTTACAGGAAAATTAAGTTGCAATTACAAATATTTCCGTTTAATTATAACAACAATCTATTGCAAATTAAAATACTATCAATTACCATATGGCTTACAACCTAACTAACGAAAGGTAGGTAAAG (double strand) [icaA promoter region]”, the binding entry is reported as “binds”.

On to “GCGCAATTTGGTGAAGTTTGATAGATGATACATTCTATTAAACTTCCTTTTTTTATGTCTTTTTTTACCTAATTGTTAAGAGGTTTTGCACTAATGGCACTTAATATAAGGAAGATAGCCGCATAACGAGCAGTATATATCAAATACATTTCAAAAAAAGCTGATTTCTATCAAATAATGAATAGTAATCAGCTTTTTCACATTGCCTAAGGACTTTATGCCCTAGGTTTATATATCAC (double strand) [sarA promoter region]”, for which the binding result was “binds”.
